B1: human CD6 fused to EGFP [human] / GRB2-related adaptor downstream of Shc (GADS), endogenous [human (endogenous in Jurkat)] (parent)
chain 1: MEAVAKFDFTASGEDELSFHTGDVLKILSNQEEWFKAELGSQEGYVPKNFIDIQFPKWFHEGLSRHQAENLLMGKEVGFFIIRASQSSPGDFSISVRHEDDVQHFKVMRDNKGNYFLWTEKFPSLNKLVDYYRTNSISRQKQIFLRDRTREDQGHRGNSLDRRSQGGPHLSGAVGEEIRPSMNRKLSDHPPTLPLQQHQHQPQPPQYAPAPQQLQQPPQQRYLQHHHFHQERRGGSLDINDGHCGTGLGSEMNAALMHRRHTDPVQLQAAGRVRWARALYDFEALEDDELGFHSGEVVEVLDSSNPSWWTGRLHNKLGLFPANYVAPMTR
chain 2: HPSPAPPDQLNTSSAESELWEPGERLPVRLTNGSSSCSGTVEVRLEASWEPACGALWDSRAAEAVCRALGCGGAEAASQLAPPTPELPPPPAAGNTSVAANATLAGAPALLCSGAEWRLCEVVEHACRSDGRRARVTCAENRALRLVDGGGACAGRVEMLEHGEWGSVCDDTWDLEDAHVVCRQLGCGWAVQALPGLHFTPGRGPIHRDQVNCSGAEAYLWDCPGLPGQHYCGHKEDAGAVCSEHQSWRLTGGADRCEGQVEVHFRGVWNTVCDSEWYPSEAKVLCQSLGCGTAVERPKGLPHSLSGRMYYSCNGEELTLSNCSWRFNNSNLCSQSLAARVLCSASRSLHNLSTPEVPASVQTVTIESSVTVKIENKESRELMLLIPSIVLGILLLGSLIFIAFILLRIKGKYALPVMVNHQHLPTTIPAGSNSYQPVPITIPKEVFMLPIQVQAPPPEDSDSGSDSDYEHYDFSAQPPVALTTFYNSQRHRVTDEEVQQSRFQMPPLEEGLEELHASHIPTANPGHCITDPPSLGPQYHPRSNSESSTSSGEDYCNSPKSKLPPWNPQVFSSERSSFLEQPPNLELAGTQPAFSAGPPADDSSSTSSGEWYQNFQPPPQPPSEEQFGCPGSPSPQPDSTDNDDYDDISAA
B2: human CD6 fused to EGFP [human] / T cell-specific adaptor protein (TSAd), endogenous [human (endogenous in Jurkat)] (parent)
chain 1: not shown
chain 2: B1 chain 2
B3: human CD6 fused to EGFP [human] / SH2 domain-containing leukocyte molecule of 76 kDa (SLP-76), endogenous [human (endogenous in Jurkat)] (parent)
chain 1: MALRNVPFRSEVLGWDPDSLADYFKKLNYKDCEKAVKKYHIDGARFLNLTENDIQKFPKLRVPILSKLSQEINKNEERRSIFTRKPQVPRFPEETESHEEDNGGWSSFEEDDYESPNDDQDGEDDGDYESPNEEEEAPVEDDADYEPPPSNDEEALQNSILPAKPFPNSNSMYIDRPPSGKTPQQPPVPPQRPMAALPPPPAGRNHSPLPPPQTNHEEPSRSRNHKTAKLPAPSIDRSTKPPLDRSLAPFDREPFTLGKKPPFSDKPSIPAGRSLGEHLPKIQKPPLPPTTERHERSSPLPGKKPPVPKHGWGPDRRENDEDDVHQRPLPQPALLPMSSNTFPSRSTKPSPMNPLPSSHMPGAFSESNSSFPQSASLPPYFSQGPSNRPPIRAEGRNFPLPLPNKPRPPSPAEEENSLNEEWYVSYITRPEAEAALRKINQDGTFLVRDSSKKTTTNPYVLMVLYKDKVYNIQIRYQKESQVYLLGTGLRGKEDFLSVSDIIDYFRKMPLLLIDGKNRGSRYQCTLTHAAGYP
chain 2: B1 chain 2

Variants of: B1
Assay: co-immunoprecipitation (anti-CD6 IP), Western blot densitometry
Details: with GRB2-related adaptor downstream of Shc (GADS), Jurkat cells, 3 × 10^6 cells per sample, pervanadate treated, CD6 MAb (MEM-98), three experiments, read off a plot

response	Variant
0.9 AU	chain 2 Y612F Y645F
10 AU	chain 2 Y612F
9.1 AU	chain 2 Y645F

Variants of: B2
Assay: as above
Details: with T cell-specific adaptor protein (TSAd), Jurkat cells, 3 × 10^6 cells per sample, pervanadate treated, CD6 MAb (MEM-98), three experiments, read off a plot

response	Variant
8.8 AU	chain 2 Y612F
4.4 AU	chain 2 Y612F Y645F
5.2 AU	chain 2 Y645F

Variants of: B3
Assay: as above
Details: with SH2 domain-containing leukocyte molecule of 76 kDa (SLP-76), Jurkat cells, 3 × 10^6 cells per sample, pervanadate treated, CD6 MAb (MEM-98), three experiments, read off a plot

response	Variant
1.5 AU	chain 2 Y645F
0.5 AU	chain 2 Y612F Y645F
6.4 AU	chain 2 Y612F

Source: paper PMC5440646, “T Cell Costimulation by CD6 Is Dependent on Bivalent Binding of a GADS/SLP-76 Complex” (Molecular and Cellular Biology, 2017)
